Assay results: the supplement of paper PMC9170038

Key:
Details in all cases: FMN input: 0 or 200 uM; Eterna round: R93 (includes R88 designs)
[1] = tested on: MS2 coat protein; assay: apparent KD of MS2 coat protein, switch ON state; designed switch direction (-1 OFF switch, 1 ON switch): 1; higher = weaker reporter binding
How it was run: (§1)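 Titration buffer: 100 mM Tris-HCl pH 7.5, 80 mM KCl, 4 mM MgCl2, without or with constant ligand. Designed RNA switches transcribed on-chip from Illumina sequencing clusters received SNAP-549-labelled MS2 coat protein in twofold steps from 0.7 or 1.5 nM to 3 µM. Apparent KD is the median per design of fits to normalised cluster binding curves.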

[2] = tested on: MS2 coat protein; assay: apparent KD of MS2 coat protein, switch OFF state (with FMN for OFF switches, without FMN for ON switches); designed switch direction (-1 OFF switch, 1 ON switch): 1; higher = weaker reporter binding
How it was run: as §1

[3] = tested on: MS2 coat protein; assay: apparent KD of MS2 coat protein, switch ON state; designed switch direction (-1 OFF switch, 1 ON switch): -1; higher = weaker reporter binding
How it was run: as §1

[4] = tested on: MS2 coat protein; assay: apparent KD of MS2 coat protein, switch OFF state (with FMN for OFF switches, without FMN for ON switches); designed switch direction (-1 OFF switch, 1 ON switch): -1; higher = weaker reporter binding
How it was run: as §1

AAAAAAAAAAGACAGGAUAUCCAAAAAAAAACAUGAGGAUCACCCAUGUAAAAAAAAAAAAAAUGGGAGAAGGGUCAAAAAAAAAA [Louisiana 5 - Jieux - Same State 2]
apparent KD of MS2 coat protein [1]: 21.9 nM | apparent KD of MS2 coat protein [2]: 36.5 nM

CUCAAGUGAGGAUAUCAGUAGUAAAAAAAUAAAAUUACUACUGAGAAGGCACAUGAGGAUCACCCAUGUGUCUU [EX4 333: Super Stable 33]
apparent KD of MS2 coat protein [3]: 14.1 nM | apparent KD of MS2 coat protein [4]: 11.1 nM

CUCGUGUCAGGAUAUGGAAGGCCGUUUGAUUAACGAGGGUACUAGAAGGGACAUGAGGAUCACCCAUGUAAAAA [Maonis]
apparent KD of MS2 coat protein [3]: 81.5 nM | apparent KD of MS2 coat protein [4]: 90.4 nM

CUCUUGUCAGGAUAUCUAAGAAAAGAAAAGAAAGAAAAGAAAGAGAAGGGACAUGAGGAUCACCCAUGUAAGAA [EteRNA is fun!]
apparent KD of MS2 coat protein [3]: 46.3 nM | apparent KD of MS2 coat protein [4]: 42.4 nM

CUCUUGUCAGGAUAUUGAAGAAAAGAAGAGAAAGAAAAGAACAAGAAGGGACAUGAGGAUCACCCAUGUAAGAA [EteRNA is fun!]
apparent KD of MS2 coat protein [3]: 61.8 nM | apparent KD of MS2 coat protein [4]: 66.7 nM

CUCUUGUGAGGAUAUUGAAGAAAAGAAGAGAAAGAAAAGAACAAGAAGGCACAUGAGGAUCACCCAUGUAAGAA [EteRNA is fun!]
apparent KD of MS2 coat protein [3]: 37.9 nM | apparent KD of MS2 coat protein [4]: 44.2 nM

CUUGUGUGAGGAUAUGUAAAAUGAAUAAGCAGUUCUAAAAGGCAGAAGGUACAUGAGGAUCACCCAUGUGAAAA [Inza]
apparent KD of MS2 coat protein [3]: 39.3 nM | apparent KD of MS2 coat protein [4]: 49.8 nM

GAAAACAGAGGAUAUACAAAAUUGACACGAAAGGUGCAAAAACAUGAGGAUCACCCAUGUAGAAGGCUGAAGAA [Meechl MS2 Ex2 3]
apparent KD of MS2 coat protein [3]: 25.3 nM | apparent KD of MS2 coat protein [4]: 21.1 nM

GAAAACAGAGGAUAUACAUGAGGAUCACCCAUGUAAAAAUGUAGAAGGCUGAAAGAAAGAAGAAGGAAAGAAAA [Meechl Ex3 R2 m2]
apparent KD of MS2 coat protein [3]: 24.2 nM | apparent KD of MS2 coat protein [4]: 28.3 nM

GAAAAGCAAGGAUAUACAUGAGGAUCACCCAUGUGGAAUGGCGUGACCGAAAGAAAAGGUAGAAGGUGCACGUG [Ragetia]
apparent KD of MS2 coat protein [3]: 216 nM | apparent KD of MS2 coat protein [4]: 286 nM

GAAAAGUCAGGAUAUACAGAAAAAAAAACGAAAAAAAAUCUGUAGAAGGGACAUGAGGAUCACCCAUGUAAAAA [Mat - Exclusion 4 - Mayanna - D122]
apparent KD of MS2 coat protein [3]: 51.4 nM | apparent KD of MS2 coat protein [4]: 37.6 nM

GAAAAGUCAGGAUAUGCAGAAAAAAAAACGAAAAAAAAACUGCAGAAGGGACAUGAGGAUCACCCAUGUUAAAA [Mat - Exclusion 4 - Mayanna - D127]
apparent KD of MS2 coat protein [3]: 41.5 nM | apparent KD of MS2 coat protein [4]: 31.2 nM

GAAAAGUGAGGAUAUACAUGAGGAUCACCCAUGUGUAUAAAAAAAUACACAAAAGAAAGUAGAAGGCACUAAAG [Mat - Exclusion 3 - Mayanna mod - D110]
apparent KD of MS2 coat protein [3]: 23.1 nM | apparent KD of MS2 coat protein [4]: 48.7 nM

GAAAAGUGAGGAUAUUCGGAUAGGAAAACGAAAACCUAUCCGAAGAAGGCACAUGAGGAUCACCCAUGUGAAAG [Mat - Exaclusion 4 - Eli mod - D43]
apparent KD of MS2 coat protein [3]: 28 nM | apparent KD of MS2 coat protein [4]: 30.9 nM

GAAAAUGGAGGAUAUACAUGAGGAUCACCCAUGUGUAAAAAAAAUUACACAAAAGAAAGUAGAAGGCCAUAAAA [Mat - Exclusion 3 - Mayanna mod - D107]
apparent KD of MS2 coat protein [3]: 66.4 nM | apparent KD of MS2 coat protein [4]: 174 nM

GAAAGGUCAGGAUAUACGUUAUGCUAGUGCUCGUACUAUAAGUAGAAGGGACAUGAGGAUCACCCAUGUGAUAA [Kawasakiqro]
apparent KD of MS2 coat protein [3]: 45.2 nM | apparent KD of MS2 coat protein [4]: 58.3 nM

GAAGAACAUGAGGAUCACCCAUGUCAGGAUAUGCAGAAGGGAAUAAUAACCUCUGGAAGCAGAAGGGACAAGAA [Ex 1 May 48]
apparent KD of MS2 coat protein [3]: 33.5 nM | apparent KD of MS2 coat protein [4]: 59.4 nM

GAAGAACAUGAGGAUCACCCAUGUGAGGAUAUACAGAAUGGAAUAAAAUAACAAGAAAGUAGAAGGCACAAGAA [Ex 1 May 39]
apparent KD of MS2 coat protein [3]: 32.1 nM | apparent KD of MS2 coat protein [4]: 38.4 nM

GAGGAGUCAGGAUAUCGGGAAAGGUUGAGGAAGAGAAGAAGCGAGAAGGGACAUGAGGAUCACCCAUGUAGAAG [Default title]
apparent KD of MS2 coat protein [3]: 46.7 nM | apparent KD of MS2 coat protein [4]: 40.3 nM

GAGUAAGGAGGAUAUACAUGAGGAUCACCCAUGUAAAAAGGGAAAGUAGAAAAGUAGAGUAGAAGGCCUAUAGA [JR_Exc003_Sub1702]
apparent KD of MS2 coat protein [3]: 70.4 nM | apparent KD of MS2 coat protein [4]: 58.3 nM

GAUCAGCUAGGAUAUACAUUAAUCCGAUAUGAGAAGAAAGAACAUGAGGAUCACCCAUGUAGAAGGAGCCAGUA [Ridigeer]
apparent KD of MS2 coat protein [3]: 40.2 nM | apparent KD of MS2 coat protein [4]: 39.3 nM
